{"source": "patent US20070185028A1", "about": "“Compositions and methods for treatment of protein misfolding and protein aggregation diseases” (priority 2004, published 2007)", "target": "T1, CS (Sus scrofa, UniProt P00889)", "T1 sequence (P00889 28-464)": "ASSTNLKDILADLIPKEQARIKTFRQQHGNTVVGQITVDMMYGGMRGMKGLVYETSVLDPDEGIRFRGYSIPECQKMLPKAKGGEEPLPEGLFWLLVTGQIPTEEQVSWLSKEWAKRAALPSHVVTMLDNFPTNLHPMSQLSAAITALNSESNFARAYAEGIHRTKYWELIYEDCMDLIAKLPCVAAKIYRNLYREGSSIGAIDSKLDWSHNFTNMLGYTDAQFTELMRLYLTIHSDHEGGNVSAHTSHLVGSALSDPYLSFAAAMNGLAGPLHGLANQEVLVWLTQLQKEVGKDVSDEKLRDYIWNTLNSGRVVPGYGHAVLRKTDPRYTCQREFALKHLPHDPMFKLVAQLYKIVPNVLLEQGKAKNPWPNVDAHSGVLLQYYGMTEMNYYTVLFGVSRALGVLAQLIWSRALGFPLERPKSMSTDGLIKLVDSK", "experiment": "Chaperone assay, thermal aggregation of CS at 50° C.", "assay_type": "biochemical", "details": "10:1 molar ratio of peptide:CS, sixty minutes, 340 nm", "method": "The chaperone activity of the peptides was measured as their ability to protect against the thermal aggregation of three chaperone target proteins βH crystallin, ADH and CS in chaperone assays performed at 50° C. (FIG. 19). A non-interactive αB crystallin sequence 111HGKHEERQDE120 was used as the negative control in the chaperone assays (FIG. 19). Based on near and far UVCD, the three target proteins unfolded in the order: CS>>>ADH>>βH crystallin when they were heated at 50° C. for sixty minutes (FIGS. 15 and 16). The thermal aggregation of βH crystallin, ADH and CS was measured as light scattering at λ=340 nm in the presence and absence of each peptide. The chaperone activity of each peptide was calculated as percent protection in which the aggregation of each target protein in the absence of any peptides was set at 0% protection (FIG. 19). The interactive peptides […] and 131LTITSSLSDGV141 were effective inhibitors of aggregation of all three chaperone target proteins.\nA (top left): thermal aggregation of chaperone target proteins βH crystallin, ADH and CS in the absence of peptides was measured as light scattering at λ=340 nm. […] The chaperone activity of each peptide was calculated as percent protection in which the aggregation of each target protein in the absence of any peptides was set at 0% protection. […]", "data": [{"sequence": "HGKHEERQDE", "values": [{"measurement": "percent protection against thermal aggregation of CS", "result": "partial protection"}]}]}
